B1: 7G7/κ (antibody, V domains shown)
VH: QVQLVESGGGVVQPGRSLRLSCIASGFTFRNYAMYWVRQAPGKGLEWVAVIWYDGSNKFYTDSVKGRFTISRDNSKNSLYLQMNSLRAEDTAVYFCARDQGFGDNYYYYGMDVWGQGTTVTVSS
VL: SYELTQPPSVSVSPGQTARISCSGDALPKEYAYWYQQKPGQAPVLVIYKDSERPSGIPERFSGSSSGTTVTLTISGVQAEDEADYYCQLADSSMHYVVFGGGTKLTVL
notes: also called 7G7-IgG1κ; 7G7/κ (IgG1/Igκ); source: Expi293F, cotransfected with IgH and IgL vectors, purified (HiTrap Protein G)
B2: NIBIC-71 (antibody, V domains shown)
VH: EVQLVESGGGLIQPGGSLRLSCEASGLIVSSNYMTWVRQAPGKGLEWVSVIYSGGSTFYADSVKGRFTVSRDNSKNTLYLQMNNLSPEDTAVYYCARDLGPYGVDVWGQGTTVTVSS
VL: AIQLTQSPSSLSASVGDRVTITCRASQGISSYLAWYQQTPGKAPKLLIYAASTLQSGVPSRFSGSGSGTDFTLTISSLQPEDFATYYCQQLNSYPPFTFGPGTKVDIK
notes: also called recombinant mAb NIBIC-71

Target: T1, S protein trimer with D614G mutation (SARS-CoV-2, D614G, D614G)
T1 construct: also called Spike; homotrimeric S protein
Assay: cryo-EM structure
Details: both partners purified

Row | Binder | stoichiometry N [Fabs per S protein trimer]
1 | B1 | 3
2 | B2 | 2

Reference: PMC9684487, “Human antibody recognition and neutralization mode on the NTD and RBD domains of SARS-CoV-2 spike protein” (Scientific Reports, 2022)
